From US20210030857A1 (NGM BIOPHARMACEUTICALS, published 2021)

T1: human beta klotho expressed on cells (human, UniProt Q86Z14 1-1044)
T1 construct: also called HuKLB overexpressing cells; Human KLB
T1 sequence: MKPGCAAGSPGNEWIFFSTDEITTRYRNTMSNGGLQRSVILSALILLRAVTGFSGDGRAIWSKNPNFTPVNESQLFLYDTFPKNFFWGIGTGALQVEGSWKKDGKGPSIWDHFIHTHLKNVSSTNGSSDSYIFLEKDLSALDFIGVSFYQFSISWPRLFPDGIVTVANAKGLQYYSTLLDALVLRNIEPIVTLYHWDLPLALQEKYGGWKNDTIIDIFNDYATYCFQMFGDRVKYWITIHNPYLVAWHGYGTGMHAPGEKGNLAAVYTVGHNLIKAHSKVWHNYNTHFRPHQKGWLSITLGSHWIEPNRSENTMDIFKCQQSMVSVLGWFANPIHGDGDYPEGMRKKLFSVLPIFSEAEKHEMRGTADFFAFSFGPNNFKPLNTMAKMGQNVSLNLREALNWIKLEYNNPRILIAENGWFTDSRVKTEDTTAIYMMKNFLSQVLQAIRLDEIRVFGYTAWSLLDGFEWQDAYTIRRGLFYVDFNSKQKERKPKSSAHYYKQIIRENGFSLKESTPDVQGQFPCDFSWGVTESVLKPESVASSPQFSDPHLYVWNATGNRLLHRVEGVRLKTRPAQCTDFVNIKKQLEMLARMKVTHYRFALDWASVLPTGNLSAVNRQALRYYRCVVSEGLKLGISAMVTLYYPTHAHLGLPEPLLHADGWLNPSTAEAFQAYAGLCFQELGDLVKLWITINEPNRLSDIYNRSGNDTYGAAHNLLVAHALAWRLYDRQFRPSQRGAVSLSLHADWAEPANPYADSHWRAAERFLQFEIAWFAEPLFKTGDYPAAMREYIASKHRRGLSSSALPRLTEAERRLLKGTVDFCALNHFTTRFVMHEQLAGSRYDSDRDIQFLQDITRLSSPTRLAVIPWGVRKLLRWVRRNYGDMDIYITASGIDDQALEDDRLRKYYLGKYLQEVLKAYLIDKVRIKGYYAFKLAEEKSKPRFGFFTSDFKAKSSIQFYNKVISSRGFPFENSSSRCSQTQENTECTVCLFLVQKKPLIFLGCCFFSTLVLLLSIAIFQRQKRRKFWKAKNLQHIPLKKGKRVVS

T2: cynomolgus beta klotho expressed on cells (cynomolgus monkey (Macaca fascicularis), UniProt Q86Z14 1-1044 (human entry))
T2 construct: also called Cynomolgus KLB
T2 chain: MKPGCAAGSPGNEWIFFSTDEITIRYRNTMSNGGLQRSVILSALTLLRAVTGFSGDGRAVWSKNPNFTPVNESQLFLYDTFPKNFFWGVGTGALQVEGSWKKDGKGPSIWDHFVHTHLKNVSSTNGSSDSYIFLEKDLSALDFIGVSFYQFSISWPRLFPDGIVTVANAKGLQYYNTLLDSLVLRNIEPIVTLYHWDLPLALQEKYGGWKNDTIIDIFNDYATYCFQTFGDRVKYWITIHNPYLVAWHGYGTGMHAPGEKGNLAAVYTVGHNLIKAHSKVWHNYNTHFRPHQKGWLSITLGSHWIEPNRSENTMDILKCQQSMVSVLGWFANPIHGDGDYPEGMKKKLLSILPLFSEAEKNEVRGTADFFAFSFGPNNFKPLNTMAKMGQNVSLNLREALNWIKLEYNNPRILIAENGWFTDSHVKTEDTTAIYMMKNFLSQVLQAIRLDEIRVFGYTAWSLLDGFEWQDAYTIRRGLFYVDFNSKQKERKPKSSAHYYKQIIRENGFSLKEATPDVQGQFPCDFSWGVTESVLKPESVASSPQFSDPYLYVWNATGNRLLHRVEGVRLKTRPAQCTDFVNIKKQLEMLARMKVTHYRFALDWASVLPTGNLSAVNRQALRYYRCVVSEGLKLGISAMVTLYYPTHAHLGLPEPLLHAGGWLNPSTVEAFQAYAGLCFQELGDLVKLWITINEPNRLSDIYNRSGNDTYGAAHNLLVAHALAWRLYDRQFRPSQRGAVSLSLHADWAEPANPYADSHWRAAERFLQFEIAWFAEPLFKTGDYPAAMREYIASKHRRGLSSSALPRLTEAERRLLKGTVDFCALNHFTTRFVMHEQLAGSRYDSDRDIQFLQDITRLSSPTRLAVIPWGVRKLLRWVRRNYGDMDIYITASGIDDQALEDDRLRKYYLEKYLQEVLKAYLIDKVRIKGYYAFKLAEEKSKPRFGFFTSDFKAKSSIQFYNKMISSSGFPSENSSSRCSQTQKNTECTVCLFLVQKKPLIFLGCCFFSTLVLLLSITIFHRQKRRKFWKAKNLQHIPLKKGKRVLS

B1: negative control antibody, anti-keyhole limpet hemocyanin (KLH) antibody (antibody, human IgG1, kappa, V domains shown)
VH: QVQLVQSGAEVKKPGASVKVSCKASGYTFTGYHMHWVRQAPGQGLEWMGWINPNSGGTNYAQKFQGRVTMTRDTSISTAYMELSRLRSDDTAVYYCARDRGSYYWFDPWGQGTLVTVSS
VL: DIQMTQSPSSLSASVGDRVTITCRASQGIRNDLGWYQQKPGKAPKRLIYAASSLQSGVPSRFSGSGSGTEFTLTISSLQPEDFATYYCLQHNSYPLTFGGGTKVEIKR
notes: also called Neg; Control; anti-KLH antibody
B2: humanized 5H23 antibody (VH SEQ ID NO: 271 and VL SEQ ID NO: 276) (antibody, V domains shown)
VH: QVQLQQSGAEVKKPGASVKVSCKASGYTFTSYDINWVRQAPGQGLEWIGWIYPGDGSTKYNEKFKGKATITRDTSASTAYMELSSLRSEDTAVYFCARSDYYGSRSFAYWGQGTLVTVSS
VL: DIVMTQSPDSLAVSLGERATINCRASKSVSTSGYVYMHWYQQKPGQPPKLLIYLASYLESGVPDRFSGSGSGTDFTLTISSVQAEDVAVYYCQHSRDLTFPFGGGTKLEIK
notes: also called h5H23; h5H23 (Prep 1)

Assays:
[1] = biological target: T1, human beta klotho expressed on cells; experiment: FACS on transfected Expi293 cells, antibody 1 µg/ml, labelled anti-human Fc
Experimental: (§1) Studies were performed in order to localize the binding site on human KLB of anti-beta klotho antibodies in the 5H23 epitope bin, including 5H23 as described in Example 3, with sequences shown in Tables 1-10 and FIGS. 1-3, and human anti-beta klotho antibodies in the 5H23 epitope bin, such as humanized 5H23 antibodies (e.g., VH SEQ ID NO: 271 and VL SEQ ID NO: 276). For example, FACS-based binding assays for domain mapping were performed on Expi293 cells (Life Technologies, A14635) that were transiently transfected with plasmids encoding variants of KLB: human, mouse, cynomolgus, a chimeric version in which the KL1 domain sequence of mouse KLB (M1-F506) replaces the KL1 domain of human KLB (M1-F508) to create mouse-human KLB (SEQ ID NO: 376), and a second chimera in which the human KL1 sequence (M1-F508) replaces the KL1 domain of mouse KLB (M1-F506) to create human-mouse KLB (SEQ ID NO: 374). Additionally, the expression vector pYD7 harboring no KLB sequence was transfected as a negative control.
(§2) In some studies, binding of a purified sample of a humanized 5H23 antibody (e.g., VH SEQ ID NO: 271 and VL SEQ ID NO: 276) to KLB variants was determined by FACS analysis. […] After washing with PBS/1% BSA/0.1% azide, transfected cells were then co-incubated with labeled anti-human Fc (Jackson lmmunoresearch) for 30 minutes at 4° C. After washing with PBS/1% BSA/0.1% azide, cells were acquired on flow cytometer (FACS Calibur) and analyzed by cytometric software (FlowJo). To display the resulting data, graphs plotting the number of cells as a function of fluorescence intensity were generated, and the median fluorescence intensity (MFI) was determined for each sample as shown in Table 30.

[2] = biological target: T2, cynomolgus beta klotho expressed on …; experiment: as above
Experimental: as §1, §2

| Binder | Mean Fluorescence intensity [1] [MFI] | Mean Fluorescence intensity [2] [MFI] |
| --- | --- | --- |
| B1 | 6.2 | 9.26 |
| B2 | 865 | 1910 |
